Measured values from article PMC7476758, “Underground isoleucine biosynthesis pathways in E. coli” (eLife, 2020).

How the values were obtained:
N[C@@H](CO)C(=O)O = assay: Michaelis-Menten kinetics of purified mutant enzyme, DTNB assay (KM); assay type: biochemical, Escherichia coli; details: mutation far from the active site
[1] = test system: CC(=O)SCCNC(=O)CCNC(=O)[C@H](O)C(C)(C)COP(=O)(O)OP(=O)(O)OC[C@H]1O[C@@H](n2cnc3c(N)ncnc32)[C@H](O)[C@@H]1OP(=O)(O)O; assay: Michaelis-Menten kinetics of purified mutant enzyme, DTNB assay of released CoA (KM); assay type: biochemical, Escherichia coli; details: mutation far from the active site

## serine acetyltransferase (CysE) (Escherichia coli K-12; A33T)
N[C@@H](CO)C(=O)O
  Km: 500 ± 200 µM
[1]
  Km: 5000 ± 2000 µM
